Assay results published in paper PMC8891067.

Experiments:
purified protein [1] = substrate: CCCCCCCCCCCCCCCC(=O)SCCNC(=O)CCNC(=O)[C@H](O)C(C)(C)COP(=O)(O)OP(=O)(O)OC[C@H]1O[C@@H](n2cnc3c(N)ncnc32)[C@H](O)[C@@H]1OP(=O)(O)O; test: purified protein; assay type: biochemical, Caulobacter vibrioides; conditions: 100 mM HEPES
purified protein [2] = substrate: N[C@@H](CO)C(=O)O; test: purified protein; assay type: biochemical, Caulobacter vibrioides; conditions: 250 μM C16:0-CoA, 100 mM HEPES, 250 mM NaCl, pH 7.0, 30 °C

B1: Spt (CCNA_01220) (Caulobacter vibrioides NA1000) (protein)
chain: MGLFDKHLAYRDAYKAIQDVGANPFKVRFDAVHSPTEGVVDGRPTILLGTNNYLGLTFDEQAIAASVKAVQERGTGTTGSRIANGSFESHVELEQELAKFYGRKHAMVFTTGYQANLGVLSTLVGRGDHLILDADSHASIYDGSRLGHAEVIRFRHNDPEDLAKRLRRLGDAPGERLIVVEGIYSMIGDVAPLKEIAAVKREMGGYLLVDEAHSMGVLGATGRGLAEAAGVEEDVDFIVGTFSKSLGAIGGFCVSDHDDFDVMRVICRPYMFTASLPPAVAASTVTALRRMIEQPELRDRLNRNAKRLYDGLTAMGFLTGPSASPIVAATMPDQERAIAMWNGLLQAGVYLNLALPPATPDSRPLLRASVSAAHTDEQIDAVLKTYGEIGAALGVIEPLKRARA
Km (purified protein [1]; 20 mM L-serine, 250 mM NaCl, pH 7.0, 30 °C): 110.40 ± 13.37 µM
Km (purified protein [2]): 2980 ± 250 µM

B2: bCerS (CCNA_01212) (Caulobacter vibrioides NA1000) (protein)
chain: MPFDSTNADLSVIPVKTPAELKRFIALPARLNAKDPNWITPLFMERTDALTPKTNPFFDHAEVQLFLATRGGRDVGRISAQIDQLTPQPTEGRLDGHFGMIAAEDDPAVFNVLFRAAEDWLRARGRTHAVGPFNLSINEEVGLLVWGFDTPPMVLMGHDPVYAGPRVEEQGYAKAQDLFAYKADETGDIPEIAQRRVKRGLPSGVVLRQLDMSRYDQEVQTLTEILNDAWSDNWGFTPTTEAETRQLAKSLKQVIDQRLVWFSEIDGEAAGVVVFLPNVNEAIADLKGKLLPFGWAKLLWRLKVKGVKSARIPLMGVKKKFQTSQRGRMLPFWMMKASRDMAMSLGYNRYEISWVLEANKAMTHIAENVGGTHYKTYRVYEKAL
Km (purified protein [1]; with 3-KDS (40 μM), 150 mM NaCl, pH 7.5, 30 °C): 21.3 ± 4.1 µM
